Source: publication doi:10.1101/2023.02.28.527262, “Tozorakimab (MEDI3506): a dual-pharmacology anti-IL-33 antibody that inhibits IL-33 signalling via ST2 and RAGE/EGFR to reduce inflammation and epithelial dysfunction” (bioRxiv, 2023)

Target: T1, soluble serum stimulated 2 (sST2) (UniProt Q01638-2 19-328)
T1 construct: ST2 (IL1RL1), truncated soluble isoform that lacks the transmembrane and intracellular domains of ST2L; also called soluble ST2; IL1RL1; source: recombinant; expression and purification described previously [21]; receptor glycoproteins re-monomerized by Superdex 200 SEC
T1 sequence (looked up): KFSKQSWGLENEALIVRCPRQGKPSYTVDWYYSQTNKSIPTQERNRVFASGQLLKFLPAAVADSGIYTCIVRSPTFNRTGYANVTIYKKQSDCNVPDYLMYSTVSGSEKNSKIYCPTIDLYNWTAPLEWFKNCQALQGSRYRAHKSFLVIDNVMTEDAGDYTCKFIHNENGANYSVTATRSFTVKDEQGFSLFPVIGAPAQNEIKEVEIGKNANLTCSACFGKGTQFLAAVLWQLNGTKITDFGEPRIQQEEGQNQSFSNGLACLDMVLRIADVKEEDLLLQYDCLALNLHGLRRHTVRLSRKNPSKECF
Assay: KinExA; kinetic exclusion assay in free solution; IL-33^red titrated into fixed sST2 (30 pM and 2.0 pM); 1:1 binding model fitted to two datasets; association rate also by KinExA
Conditions: both partners purified

Kd: 0.09 pM | kon: 1.5e+08 M⁻¹ s⁻¹
B1: reduced interleukin-33 (IL-33^red), residues 112–270 (ligand, human, UniProt O95760 112-270, looked up)
chain: SITGISPITEYLASLSTYNDQSITFALEDESYEIYVEDLKKDEKKDKVLLSYYESQHPSNESGDGVDGKMLMVTLSPTKDFWLHANNKEHSVELHKCEKPLPDQAFFVLHNMHSNCVSFECKTDPGVFIGVKDNHLALIKVDSSENLCTENILFKLSET
notes: Interleukin-33, human, residues 112-270, reduced form (free cysteines); also called wild-type IL-33; source: recombinant; expression and purification described previously [21]
